Laboratory results from patent US20230272378A1, “ENCODING AND EXPRESSION OF ACE-tRNAs” (University of Rochester, priority 2020, published 2023).

Columns and labels:
[1] = test system: nuclei of nondividing cells; experiment: Nuclear localization of DNA after cytoplasmic microinjection; format: cell-based
Description: (D) Schematic of ACE-tRNA MC and CEDT with SV40 DTS.
Inventors have screened over 60 strong general and cell-specific promoters and found seven DTSs. Of these, two perform ubiquitously, while five bind specific transcription factors expressed in a subset of cells.
As an alternative approach to directly labeling the plasmid with Cy3-PNAs, one can also carry out fluorescent in situ hybridization (FISH) to visualize injected DNA. DTS candidate plasmids can be tested for nuclear import activity over a 30 min to 8 hr period in microinjected A549 lung epithelial cells (Dean, D. A. Exp. Cell Res. 230, 293-302 (1997), Dean, D. A., et al., Exp. Cell Res. 253, 713-722 (1999), and Vacik, J., et al., Gene Therapy 6, 1006-1014 (1999)). […] This approach can allow one to rank sequences relative to the SV40 DTS based on their speed of nuclear import. Negative controls of the pUC57 plasmid with no DTS and a positive control of the pUC57-SV40 DTS can also be injected to ensure that the cells remain viable after injection and have the ability to transport DNA into the nucleus.
Importantly, existing MC and CEDT technologies are […] at PTC suppression in both cell culture and in vivo (FIGS. 4-7 and 10). […] Therefore, to improve nuclear targeting, transcription and PTC suppression, ACE-tRNA^ArgUGA MCs and CEDTs with the 72 nucleotide SV40 DTS and generally active DTS are generated. […]

[2] = test system: p.W1282X-CFTR mRNA; experiment: qPCR of steady state CFTR mRNA (NMD inhibition) in p.W1282X 16HBE14o- cells; format: cell-based, human; details: pW1282X cells; 48 hours after transfection; equal amounts; plain ACE-tRNA^Leu = plasmid
Description: (§1) (A) Representative image of 16HBE14o- cells transfected on Transwells. (B) Representative Cl^− short circuit current traced from WT (Black), p.R1162X 16HBE14oe- cells transfected with empty vector (red) and 500 bp ACE-tRNA^Arg CEDTs (blue) in Ussing chamber recordings. […] All constructs were transfected at equal amounts. *p<0.05; **p<0.0001.
(§2) The majority of prior studies had used suppressor tRNAs to rescue PTCs encoded from cDNAs. […] In this example, 16HBE14o- cells, human bronchiole epithelial cell line, were used to determine ACE-tRNAs PTC suppression activity within the endogenous genomic landscape. Also used were mutant 16HBE14o- cells, which were CRISPR/Cas9 modified to harbor CF causing PTCs at positions p.G542X-, p.R1162X- and p.W1282X-CFTR. The cells were used to study CFTR and airway epithelia biology (Cozens, A. L. et al. American journal of respiratory cell and molecular biology 10, 38-47 (1994)).
(§3) The inventors next looked to see if ACE-tRNAs inhibited NMD following transfection of ACE-tRNA transcripts.
It had been previously shown that leucine at CFTR p.W1282 (p.W1282L) gives ˜80% WT CFTR function, as measured with Ussing chamber recordings (Xue, X. et al., Human molecular genetics 26, 3116-3129, doi:10.1093/hmg/ddx196 (2017)).

[3] = test system: W1282X-CFTR mRNA; experiment: CFTR mRNA expression in W1282X-CFTR 16HBE14ge- cells; format: cell-based, human
Experimental: In this example, studies were carried out to examine and compare rescues of endogenous CFTR PTCs with a conventional PTC readthrough agent (i.e., G418) and ACE-tRNAs delivered in plasmids. To that end, an engineered human bronchiole epithelial cell line, 16HBE14ge-, was used (Valley et al., Journal of Cystic Fibrosis, Volume 18, Issue 4, July 2019, Pages 476-483). G418 (Geneticin) is a standard PTC readthrough agent that works by interacting with the decoding center of the ribosome and promoting the suppression of PTCs with near-cognate tRNAs, thus incorporating wrong amino acids in many instances. Due to its non-specific nature, rescue by G418 results in generation of a missense mutation from a nonsense mutation. In contrast, ACE-tRNAs as disclosed herein put in the desired amino acid.
To carry out the assays, wildtype 16HBE14ge- cells or 16HBE14ge- cells having the W1282X-CFTR or R1162X-CFTR mutation were (i) treated with 100 uM G418 or vehicle, or (ii) transfected with empty plasmids or various plasmids encoding one or four copies of three ACE-tRNAs (SEQ ID NOs: 8, 4, and 1): 1×ACE-tRNA^Arg 4×ACE-tRNA^Arg, 1×ACE-tRNA^Leu 4×ACE-tRNA^Leu, 1×ACE-tRNA^Trp, and 4×ACE-tRNA^Trp in the manner described in Example 4. After 48 hours, the corresponding CFTR mRNA expression levels were then determined.
In this example, assays were carried out to examine and compare rescues of endogenous CFTR PTCs with ACE-tRNAs delivered in different formats e.g., plasmids, CEDTs, and MCs. The above described 16HBE14ge- cells, which expressed the PTC readthrough reporter piggyBac transgene (FIG. 15A) was used. More specifically, the cells were transfected with plasmids, CEDTs, or MCs encoding ACE-tRNAs. The cells were then sorted by FACS and mRNA was isolated from the non-green cells and green cells. Targeted RT-qPCR was used to quantify CFTR mRNA expression. […]
Further assays were carried out using 16HBEge- cells having W1282X-CFTR and the PTC readthrough reporter piggyBac transgene. […] The cells were NOT sorted by FACS for mRNA expression analysis, rather the entire population was analyzed.

[4] = test system: UGA codon; experiment: PTC suppression by ACE-tRNA: codon specificity and comparison with aminoglycosides; format: cell-based
Description: Using a novel high throughput cloning (HTC) and screening (HTS) method, a library of more than 500 suppressor tRNAs (ACE-tRNAs) was recently developed. In the library, the anticodon of human tRNA genes were engineered to recognize disease causing PTC codons (UAG, UAA and UGA). The ACE-tRNAs platform targeted all possible PTCs that are resultant of one nucleotide change from translated codons (tRNA^ArgUGA, tRNA^GlnUAA, tRNA^GlnUAG, tRNA^TrpUGA, tRNA^TrpUAG, tRNA^GluUAA, tRNA^GluUAG, tRNA^CysUGA, tRNA^TyrUAG, tRNA^TyrUAA, tRNA^LeuUGA, tRNA^LeuUAG, tRNA^LeuUAA, tRNA^LysUAG, tRNA^LysUGA, tRNA^SerUGA, tRNA^SerUAG, and tRNA^SerUAA).

[5] = test system: PTC; experiment: High resolution mass-spectrometry of the amino acid encoded at the PTC
Experimental: Assays were carried out to ascertain whether ACE-tRNAs identified in the screen were functionalized at the expense of recognition by the aminoacyl-tRNA synthetase. […] It was confirmed that using high resolution mass-spectrometry, the cognate amino acid for both ACE-tRNA^GlyUGA and -tRNA^TrpUGA were encoded with high fidelity, resulting in seamless PTC suppression.

[6] = test system: p.G542X-CFTR mRNA; experiment: qPCR of steady state CFTR mRNA (NMD inhibition) in p.G542X 16HBE14o- cells; format: cell-based, human; details: 48 hours after transfection, ACE-tRNA^Gly delivered as plasmid
Description: as §1, §2, §3

B1: SV40 sequence: DNA sequence from the SV40 genome containing the enhancer repeats, DNA nuclear targeting sequence (nucleic acid)
DNA: ATGCTTTGCATACTTCTGCCTGCTGGGGAGCCTGGGGACTTTCCACACCCTAACTGACACACATTCCACAGCTGGTTGGTACCTGCA
modifications: listed as DNA, chemistry not fully specified
In the case of B1, the “localization after cytoplasmic injection” value [1] is reported as “nuclear localization” and the “time to plasmid nuclear import” value [1] is reported as no more than 30 min.

B2: ACE-tRNA^LeuUGA: anti-codon edited leucine tRNA recognizing the UGA PTC, SEQ ID NO: 4 (nucleic acid)
chain: ACCAGAAUGGCCGAGUGGUUAAGGCGUUGGACUUCAGAUCCAAUGGAUUCAUAUCCGCGUGGGUUCGAACCCCACUUCUGGUA
modifications: expressed or natural sequence
For B2, the “inhibition of NMD / rescue measured by qPCR” value [2] was “significantly inhibited NMD”, the “rescue of CFTR mRNA” value ([3]; delivered via plasmids, FACS-sorted GFP+ and GFP− cells, RT-qPCR) was “significantly rescued” and the “suppression of W1282X compared with Tryptophan ACE-tRNA” value ([3]; plasmids, 48 hours) was “more effectively”. The “inhibiting nonsense mediated decay compared with G418” value ([3]; plasmids, G418 100 uM, 48 hours, W1282X-CFTR cells) was “significantly more effective”.

B3: ACE-tRNA^GlyUGA: anti-codon edited glycine tRNA recognizing the UGA PTC, SEQ ID NO: 5 (nucleic acid)
chain: GCGUUGGUGGUAUAGUGGUUAGCAUAGCUGCCUUCAAAGCAGUUGACCCGGGUUCGAUUCCCGGCCAACGCA
modifications: expressed or natural sequence
In the case of B3, the stop codon specificity [4] is reported as “specific for the UGA codon”, the “PTC suppression compared with AMG G418 and gentamicin” value ([4]; 48 hr incubation in HEK293 cells) is reported as “significantly outperformed” and the “fidelity of encoding the cognate amino acid” value [5] is reported as “high fidelity”. For the same molecule, the “inhibition of NMD measured by qPCR” value [6] was “significantly inhibited NMD”.
